# Source: paper PMC5112231
# Where a chain is given by its changes, count along the chain named.
# Key:
# Assay in all cases: EMSA
# Settings in all cases: EMSA: binding buffer 100 mM Tris-HCl pH 8, 375 mM NaCl, 25 mM MgCl2, 5 mM DTT, 65% glycerol [sic]; about 1 nmol DNA in 20 ul, 25 C …
# [1] = target: T1, Lrp K25Q K25Q (Salmonella Typhimurium 14028s) (UniProt A0A0F6AZA3)
# T1 sequence: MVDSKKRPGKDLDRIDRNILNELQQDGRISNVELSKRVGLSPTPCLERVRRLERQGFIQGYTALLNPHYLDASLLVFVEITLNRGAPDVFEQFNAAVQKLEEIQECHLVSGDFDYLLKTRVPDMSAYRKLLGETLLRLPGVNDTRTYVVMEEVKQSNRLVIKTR
# [2] = target: T2, Lrp K36Q K36Q (Salmonella Typhimurium 14028s) (UniProt A0A0F6AZA3)
# T2 sequence: T1 sequence with Q25K, K36Q
# [3] = target: T3, Lrp K36R K36R (Salmonella Typhimurium 14028s) (UniProt A0A0F6AZA3)
# T3 sequence: T1 sequence with Q25K, K36R
# [4] = target: T4, Lrp wild type (Salmonella Typhimurium 14028s) (UniProt A0A0F6AZA3)
# T4 sequence: T1 sequence with Q25K
sequence,measurement,setting,value
ACACAGTGGAGCAATAATAAAGAATGAGACCTCCCTGTTGACTGGCTATTTTGCGTAAGAGTAATAAATATGTGGAATATCCATTTCGCACCAACAAAAAAGAAATTTCTGATTAAGTAAAAACAATATGGATTATACCTGGTCTGATTTCTCGGAAAAGTCTTGCGAAATGCGAATTATGGATAGCGGGTAGGATATTCTG (double strand) [fimZ promoter],binding,[1],binds
same,binding,[2],binds more weakly
same,binding,[3],binds
same,binding,[4],binds
